Source: patent US20140341888A1 (CORNING, published 2014)
Each block holds one binder with its values, some of them ahead of it.

Key:
[1] = molecular target: T1, recombinant soluble hTNFSF13b (native) (human, UniProt Q9Y275 134-285); experiment: SPR (BIAcore 2000), antibody captured by anti-human IgG Fc, hTNFSF13b from 50 nM, Langmuir 1:1 model
T1 construct: also called huTNFSF13b; Human TNFSF13b

[2] = molecular target: T2, EGFR-AP fusion protein (UniProt P00533 25-645); experiment: SPR (BIAcore), EGFR-AP immobilized, antibody 1.5 nM to 100 nM
T2 construct: Immobilized on the BIAcore sensor chip; construct not described

- Kd [1]: 38 µM
B1: 4A5-3.1.1-B4 (antibody, V domains shown)
VH: QVQLQQWGAGLLKPSETLSLTCAVYGGSFSGYYWSWIRQPPGKGLEWIGEINHSGSTNYNPSLKSRVTISVDTSKNQFSLKLSSVTAADTAVYYCARGYYDILTGYYYYFDYWGQGTLVTVSS
VL: EIVLTQSPATLSLSPGERATLSCRASQSVSRYLAWYQQKPGQAPRLLIYDASNRATGIPARFSGSGSGTDSTLTISSLEPEDFAVYYCQQRSNWPRTFGQGTKVEIKR

- Kd [2]: 0.00032 µM
- koff [2]: 0.00058 s⁻¹
- kon [2]: 1.86e+06 M⁻¹ s⁻¹
B2: IMC-11F8 IgG (antibody, V domains shown)
VH: QVQLQESGPGLVKPSQTLSLTCTVSGGSISSGDYYWSWIRQPPGKGLEWIGYIYYSGSTDYNPSLKSRVTMSVDTSKNQFSLKVNSVTAADTAVYYCARVSIFGVGTFDYWGQGTLVTVSS
VL: EIVMTQSPATLSLSPGERATLSCRASQSVSSYLAWYQQKPGQAPRLLIYDASNRATGIPARFSGSGSGTDFTLTISSLEPEDFAVYYCHQYGSTPLTFGGGTKAEIK
